# Data from paper PMC3326303.
# Like-named read-outs stand apart in the source and are kept apart here.
# What was measured:
# Msi1 RBD1 [1] = molecular target: T1, Msi1 RBD1 (Mus musculus, UniProt Q61474 20-103); assay: competition
# Msi1 RBD1 [2] = molecular target: T1, Msi1 RBD1; assay: NMR HSQC titration
# Msi1 RBD1 [3] = molecular target: T1, Msi1 RBD1; assay: NMR HSQC titration; remark: listed apart in the source
# Msi1 RBD2 = Msi1 RBD2 (Mus musculus, UniProt Q61474 109-191); assay: NMR HSQC titration
# Msi1 RBD2, sequence (Q61474 109-191): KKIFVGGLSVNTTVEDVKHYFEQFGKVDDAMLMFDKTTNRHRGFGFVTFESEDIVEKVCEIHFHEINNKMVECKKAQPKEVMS
# Msi1 RBD1-2 = Msi1 RBD1-2 (Mus musculus, UniProt Q61474 20-191); assay: NMR HSQC titration
# Msi1 RBD1-2, sequence (Q61474 20-191): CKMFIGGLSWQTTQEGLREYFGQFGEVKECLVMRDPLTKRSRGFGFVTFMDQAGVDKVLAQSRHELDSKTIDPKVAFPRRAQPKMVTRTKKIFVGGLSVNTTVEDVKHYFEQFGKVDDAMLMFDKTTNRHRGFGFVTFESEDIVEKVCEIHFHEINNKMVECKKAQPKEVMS
# T1 sequence (Q61474 20-103): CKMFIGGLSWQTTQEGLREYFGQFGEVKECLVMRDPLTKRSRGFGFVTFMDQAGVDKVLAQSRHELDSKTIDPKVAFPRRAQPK
binder,measurement,setting,value
GUAGUU (ssRNA) [numb6-4],binding signal,Msi1 RBD1 [1],~1 ratio of complex signal to numb6-2 complex
GUAGU (ssRNA) [numb5],binding result,Msi1 RBD1 [2],binds
GGUAGU (ssRNA) [numb6-2],binding result,Msi1 RBD1 [3],binds
same,binding result,Msi1 RBD2,binds
UAGGUA (ssRNA) [numb6-1],binding result,Msi1 RBD2,binds
UAGGUAGUAGUUUUA (ssRNA) [numb15],binding result,Msi1 RBD1-2,binds
